According to US20070149453A1:

T1: p55 TNF Receptor peptide (Dabcyl-N-V-K-G-T-E-D-S-G-Edans)
T1 chain: NVKGTEDSG

T2: p75 TNF Receptor peptide (Dabcyl-C-T-S-T-S-P-T-R-Edans)
T2 chain: CTSTSPTR

T3: IL-1 Type I Receptor peptide (Dabcyl-T-H-G-I-D-A-A-Y-I-Q-Edans)
T3 chain: THGIDAAYIQ

T4: IL-6 Receptor peptide (Dabcyl-A-N-A-T-S-L-P-Edans)
T4 chain: ANATSLP

T5: IL-1 Type II Receptor peptide (Dabcyl-Q-T-K-R-T-T-V-K-E-A-Edans)
T5 chain: QTKRTTVKEA

B1: MP8-FL2 (full length MP8 without His tag, from E. coli strain MP820) (protein)
chain: MCVHPGACLPHVGVSWAEFPGHFSVELSSLLVRNVNYEIPSLKKQIAKCQQLQQEYSRKEEECQAGAAEMREQFYHSCKQYGITGENVRGELLALVKDLPSQLAEIGAAAQQSLGEAIDVYQASVGFVCESPTEQVLPMLRFVQKRGNSTVYEWRTGTEPSVVERPHLEELPEQVAEDAIDWGDFGVEAVSEGTDSGISAEAAGIDWGIFPESDSKDPGGDGIDWGDDAVALQITVLEAGTQAPEGVARGPDALTLLEYTETRNQFLDELMELEIFLAQRAVELSEEADVLSVSQFQLAPAILQGQTKEKMVTMVSVLEDLIGKLTSLQLQHLFMILASPRYVDRVTEFLQQKLKQSQLLALKKELMVQKQQEALEEQAALEPKLDLLLEKTKELQKLIEADISKRYSGRPVNLMGTSL
B2: MP8 (original clone, core MP8, N-terminal His tag and thrombin site) (protein)
chain: WIQRIRHEGNSTVYEWRTGTEPSVVERPHLEELPEQVAEDAIDWGDFGVEAVSEGTDSGISAEAAGIDWGIFPESDSKDPGGDGIDWGDDAVALQITVLEAGTQAPEGVARGPDALTLLEYTETRNQFLDELMELEIFLAQRAVELSEEADVLSVSQFQLAPAILQGQTKEKMVTMVSVLEDLIGKLTSLQLQHLFMILASPRYVDRVTEFLQQKLKQSQLLALKKELMVQKQQEALEEQAALEPKLDLLLEKTKELQKLIEADISKRYSGRPVNLMGTSL

Assays:
[1] = biological target: T1, p55 TNF Receptor peptide …
[2] = biological target: T2, p75 TNF Receptor peptide …
[3] = biological target: mouse p55 TNF receptor (mouse) (UniProt P25118); assay: cell-based or functional assay
mouse p55 TNF receptor (mouse), sequence (P25118 30-454 limits assumed): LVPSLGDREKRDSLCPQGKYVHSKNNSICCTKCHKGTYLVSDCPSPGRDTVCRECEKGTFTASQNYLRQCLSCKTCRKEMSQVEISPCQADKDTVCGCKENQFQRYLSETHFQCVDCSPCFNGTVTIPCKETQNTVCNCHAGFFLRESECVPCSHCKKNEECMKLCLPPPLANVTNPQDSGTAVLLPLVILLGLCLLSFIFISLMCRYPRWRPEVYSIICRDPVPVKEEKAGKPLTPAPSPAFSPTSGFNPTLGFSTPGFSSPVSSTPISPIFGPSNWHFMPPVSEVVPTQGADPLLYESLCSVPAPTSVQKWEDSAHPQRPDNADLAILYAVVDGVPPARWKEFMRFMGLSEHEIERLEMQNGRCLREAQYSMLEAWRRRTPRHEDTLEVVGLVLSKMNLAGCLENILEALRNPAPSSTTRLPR

[4] = biological target: mouse p75 TNF receptor (mouse) (UniProt P25119); assay: cell-based or functional assay
mouse p75 TNF receptor (mouse), sequence (P25119 23-474 limits assumed): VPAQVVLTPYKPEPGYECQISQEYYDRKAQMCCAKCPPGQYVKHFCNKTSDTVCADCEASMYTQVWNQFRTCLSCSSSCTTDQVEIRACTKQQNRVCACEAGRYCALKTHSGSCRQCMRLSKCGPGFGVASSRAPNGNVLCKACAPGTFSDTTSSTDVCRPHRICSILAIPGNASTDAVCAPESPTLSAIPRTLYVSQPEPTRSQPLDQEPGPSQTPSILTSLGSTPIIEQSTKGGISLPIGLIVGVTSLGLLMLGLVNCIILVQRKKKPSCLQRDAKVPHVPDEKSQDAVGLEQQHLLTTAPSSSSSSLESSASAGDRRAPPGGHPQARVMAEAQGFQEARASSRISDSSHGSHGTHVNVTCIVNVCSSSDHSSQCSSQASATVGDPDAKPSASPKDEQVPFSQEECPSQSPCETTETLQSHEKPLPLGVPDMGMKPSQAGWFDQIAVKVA

[5] = biological target: T3, IL-1 Type I Receptor peptide …
[6] = biological target: T4, IL-6 Receptor peptide …
[7] = biological target: T5, IL-1 Type II Receptor peptide …

| Binder | peptide cleavage (FRET assay) [1] | peptide cleavage (FRET assay) [2] | circulating TNF receptor in serum of Balb/c mice after s.c. MP8 (ELISA) [3] [fold] | circulating TNF receptor in serum of Balb/c mice after s.c. MP8 (ELISA) [4] [fold] | relative peptide cleavage activity (FRET assay) [5] | peptide cleavage (FRET assay, Zn++/Ca++ dependent) [6] | relative peptide cleavage activity (FRET assay) [7] | peptide cleavage (FRET assay, Zn++/Ca++ dependent) [1] | peptide cleavage (FRET assay, Zn++/Ca++ dependent) [2] |
| --- | --- | --- | --- | --- | --- | --- | --- | --- | --- |
| B1 | The same preparation of MP8-FL2 caused cleavage of both R1 (Dabcyl-N-V-K-G-T-E-D-S-G-Edans; SEQ. ID NO:71) and R2 | The same preparation of MP8-FL2 caused cleavage of both R1 ... and R2 (Dabcyl-C-T-S-T-S-P-T-R-Edans; SEQ. ID NO:73) | – | – | – | – | – | – | – |
| B2 | – | – | 100 | 100 | Clone MP8 shows specificity for several receptors involved in the inflammatory pathway (TNF-R p55 and p75 isoforms, IL-6 receptor and IL-1 receptors) in comparison with control substrates | MP8 also cleaves the IL-6 receptor peptide with high activity | Clone MP8 shows specificity for several receptors involved in the inflammatory pathway (TNF-R p55 and p75 isoforms, IL-6 receptor and IL-1 receptors) in comparison with control substrates | MP8 cleaves the peptides from both the p55 and p75 TNF receptors (TNF-R1 and TNF-R2) | MP8 cleaves the peptides from both the p55 and p75 TNF receptors (TNF-R1 and TNF-R2) |
